Source: patent publication US20010010922

Columns and labels:
[1] = test system: GST-BCL6ΔZFAla333,343 fusion protein
[2] = test system: GST-BCL6ΔZFAla333 fusion protein
[3] = test system: GST-BCL6 fusion protein (full-length BCL-6)

Chain of Recombinant ERK2 (New England Biolabs) (P28482 2-360): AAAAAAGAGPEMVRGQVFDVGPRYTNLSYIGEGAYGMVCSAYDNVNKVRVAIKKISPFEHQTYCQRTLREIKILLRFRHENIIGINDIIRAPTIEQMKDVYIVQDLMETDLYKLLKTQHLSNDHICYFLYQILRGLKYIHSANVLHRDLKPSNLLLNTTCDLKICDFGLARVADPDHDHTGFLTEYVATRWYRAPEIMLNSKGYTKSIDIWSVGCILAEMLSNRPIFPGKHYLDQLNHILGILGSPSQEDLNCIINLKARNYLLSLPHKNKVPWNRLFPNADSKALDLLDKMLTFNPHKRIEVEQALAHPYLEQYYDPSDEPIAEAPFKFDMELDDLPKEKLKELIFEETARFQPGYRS

Substance: Recombinant ERK2 (New England Biolabs)
- phosphorylation in ERK2 kinase assay in vitro ([gamma-32P]-ATP) [1]: phosphorylated at much lower levels than wild type BCL-6, with BCL-6Ala333,343 displaying the lowest levels
- phosphorylation in ERK2 kinase assay in vitro ([gamma-32P]-ATP) [2]: phosphorylated at much lower levels than wild type BCL-6
- phosphorylation in ERK2 kinase assay in vitro ([gamma-32P]-ATP) [3]: purified recombinant MAPK (ERK-2) can phosphorylate GST-BCL-6 fusion proteins in vitro
